Reference: patent US20240424125A1

Legend:
[1] = target: human FRα on cells (human) (UniProt P15328); assay: flow cytometry on JEG-3 cells (endogenous FRα), negative control; set-up: unit not given here
[2] = target: human FRα on cells (human) (UniProt P15328); assay: flow cytometry on IGROV-1 cells (endogenous FRα), negative control; set-up: unit not given here

Chain of human FRα on cells (human) (P15328 25-234 limits assumed): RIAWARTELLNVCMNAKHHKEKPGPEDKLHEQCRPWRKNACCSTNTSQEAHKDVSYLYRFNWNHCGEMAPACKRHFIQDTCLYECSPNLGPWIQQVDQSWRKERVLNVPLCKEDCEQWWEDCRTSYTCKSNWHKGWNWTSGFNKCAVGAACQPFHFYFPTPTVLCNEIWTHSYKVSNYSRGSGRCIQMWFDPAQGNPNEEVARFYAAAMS

Bmax [1]: 144
Bmax [2]: 208
Substance: Human IgG (antibody)
